Source: the supplement of paper PMC9170038

Tested on: K4 kissing-loop RNA reporter
Experiment: apparent KD of K4 kissing-loop reporter; higher = weaker reporter binding
Settings: Eterna round: R107
Experimental: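 RNA-MaP round R107: designed RNA switches with theophylline, tryptophan, arginine or FMN aptamers are transcribed on-chip within common flanks. They are titrated with a labelled K4 kissing-loop RNA reporter in RNA-MaP buffer (100 mM Tris pH 7.5, 80 mM KCl, 4 mM MgCl2), without ligand or with the indicated ligand. Median apparent KD per design.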

[1] = input ligand: theophylline 20 uM
[2] = input ligand: tryptophan 2.4 mM
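Further: bound reporter read as fluorescence of individual clusters on recovered sequencing chips by microscopy, with normalized cluster intensities fitted with a binding model.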

Sequence | apparent KD of K4 kissing-loop reporter (input ligand: FMN 200 uM) | apparent KD of K4 kissing-loop reporter (input ligand: arginine 13.2 mM) | apparent KD of K4 kissing-loop reporter (input ligand: none) | apparent KD of K4 kissing-loop reporter [1] | apparent KD of K4 kissing-loop reporter [2]
AGUGAUGUUGUGUUAUGCUAGGGAAGUGAUCGAGGACCGGUACGGCCGCCACUCGAGUGAUGAGUGAGUGAUGUUUGUUUAGGGA [sdsmullin] | 1100 nM | 480 nM | 961 nM | 844 nM | 490 nM
AGUGAUGUUUCUUUUAAGAGUGAUGUUUUUCGAGGACCGGUACGGCCGCCACUCGAGUGAUGAGUGCGUUGUUGUGAUGUUUAGU [#12 K4 Tryptophan A Exclusion] | 461 nM | 313 nM | 425 nM | 459 nM | 303 nM
AGUGGUGUUGUGUUAUGUUUGGGAAGUGAUCGAGGACCGGUACGGCCGCCACUCGAGUGAUGAGUGAGUGAUGUUUGUUUAGGGA [whbob_SS_Tryp_A_m10] | 927 nM | 636 nM | 1530 nM | 646 nM | 658 nM
AGUGUGCAAAAGCACACUCAGAACAAGGACAAGGAUAUCUACUAAUAGAGAAGGUGUCCUUUCCUUAGUGAUGUUAAGGAACUGA [Omei KL FMN A SS D v5] | 278 nM | 524 nM | 640 nM | 680 nM | 615 nM
AGUGUUGUUUUUUUUAAGAGUGAUGUUUUUCGAGGACCGGUACGGCCGCCACUCGAGUGAUGAGUGAGGUGUGGUGAUGAUUAGU [#10 K4 Tryptophan A Exclusion] | 816 nM | 790 nM | 1050 nM | 664 nM | 337 nM
AGUUCUUGCCGAAGGAGCGAGGCAGAGUGAUGUUCUGCAGAGGUCGAAAGACCUCAACUGCCUCAGGUAGGUCGCGGCAUGAACA [Omei KL Arginine B Exc A v6] | 291 nM | 298 nM | 563 nM | 469 nM | 476 nM
AUAAACUUGCAGUGAUGUUGCAAGUAAGACUAGGAUAUCAGGAAACUGAGAAGGAGUCAUCUCCUUCAACUGCAAGAAUGAAGGA [[K1]-[K2]-[F1]-[F2]-[F]'-[K]'-[F]''_Design4] | 147 nM | 108 nM | 129 nM | 104 nM | 133 nM
AUAGGAGUGAUGUUCCUUAGUCUCUCCGAUACCAGUAUGGAAACAUACCCUUGGCAGCGGGAGACCGCAGAUUAGGAAACUAGUC [Theophylline A K4 5] | 178 nM | 179 nM | 185 nM | 205 nM | 172 nM
AUAGGCUAGCGAAACGCUAGCCUAACAGAUACCAGUCGCGAAAGCGACCCUUGGCAGCUGCUGAGUGAUGUUCAGGUGAAUGAAU | 442 nM | 285 nM | 418 nM | 403 nM | 374 nM
AUAUAUAACUGAAGGAGCGAGGCCAAAUAUAUAUAGUGAUGUUAUAUAAAGGCACAUAGGCCUCAGGUAGGUCGCAGAAUAAUAU [AstrosExyArGB#1] | 284 nM | 274 nM | 277 nM | 270 nM | 281 nM
AUCGUUGUCUGAGGAUAUCGGUUAUCUGUAGUGAUGUUACAGUAUAUUGAUAUUAAAGAUUCUAUUCGAGAAGGCAGACAACGUA [JR_Nu3_ExcFMNB_Sub023] | 75.5 nM | 62.7 nM | 67.2 nM | 57.9 nM | 61.9 nM
AUGAGGAGCAGUGAUCCUACUCCAUGGGAAGGAGCGUAGGAUACUACAGGUAGGUCGCCCAGUGAUGUUGGGCGCGUGCUCUUGG [Isatquesra] | 140 nM | 130 nM | 135 nM | 148 nM | 150 nM
AUGCAGUGAUGUUGCUUUGUAUAAACAGAUACCAGUGAAUUUUAACACCCUUGGCAGCUGAUAGAUUCUUAAUUCUAUUAUAUAA [JR_SSTheophyA_Sub020] | 164 nM | 189 nM | 165 nM | 197 nM | 140 nM
AUGCAUGAAAGUGAUGUUUUCAGUAAUGGAAAGGAUAUGCGCUGGUGCAGAAGGUUCUAAAGUGCAUCCAACAACUGGGUAGGCC [theeternabot_sameState_KL_FMN_A_36] | 218 nM | 316 nM | 322 nM | 273 nM | 310 nM
AUGCGACGUGCGGCCGCCACUCGGAUGCGAGUGAUGUUCGCGGGCCGGCCGCAAGGCCGGCAUUCGAGGACCGGGCAUCGGUGUA [#2 Same State - Tryptophan B Attempt #1 (HarryS)] | 420 nM | 496 nM | 546 nM | 493 nM | 116 nM
AUGCUUAUAAUAACACUAUAUACAACUGAAGGAGCGACAAUAAAGUCAGGUAGGUCGCAGAAUAAAUGAGUGAUGUUCAUUUUUA [JR_ExcArginiA_Sub010] | 113 nM | 138 nM | 113 nM | 144 nM | 84.2 nM
AUUAAUAUCACGGCCGCCACUGAAUAUUGUUUUUAUAUUUAGAAUAAUUGCCAGUGAUGUUGGAUCAGGACCGGGUGAGUUUAUA [JR_SSTryptoB_Sub007] | 544 nM | 362 nM | 461 nM | 377 nM | 421 nM
